From patent publication CN105483091A

How the values were obtained:
[1] = target: T1, 原核表达的重组人Calcitonin蛋白 (PET28a-Calcitonin, 大肠杆菌BL21表达, Ni-NTA纯化) (human) (UniProt P01258); test: ELISA titer, as told in the summary of results
T1 sequence (looked up): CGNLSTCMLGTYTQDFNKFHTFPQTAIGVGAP

[2] = target: T1, 原核表达的重组人Calcitonin蛋白 (PET28a-Calcitonin, 大肠杆菌BL21表达, Ni-NTA纯化) (human); test: direct ELISA, purified antibody diluted 1:200 to 1:12800 on plates coated with purified Calcitonin protein (10 μg/ml), goat anti-mouse IgG-HRP, OD450

- ELISA滴度 (dilution (1:x)) [1]: > 100000
- ELISA滴度 (dilution (1:x)) [2]: > 10000
B1: 小鼠抗人Calcitonin单克隆抗体 (杂交瘤细胞株7D5, CGMCC No.6919 产生) (antibody, part only; not given: light chain variable region, V domains shown, part only)
VH: LFCQTAGVHSEVQLQQSGPELVKPGTSVKMSCKASGYTFTSYVIHWVKQKPGQGLEWIGYINPYNVGTKYNEKFRDKATLTSDKSSNTAYMELSSLTSEDFAVYYCVRS
